Patent US20140248278A1, “ANTI-CD22 ANTIGEN BINDING MOLECULES TO TREAT LUNG CANCER AND PROSTATE CANCER” (The Regents of the University of California, priority 2011, published 2014)

What was measured:
Ramos NHL cells = experiment: In vitro cytotoxicity assay, Ramos cells; format: cell-based, human; conditions: after 48 hours
Procedure: (§1) FIGS. 2A-C illustrate anti-CD22 mediated cytotoxicity and CD22 internalization. (A) Ligation of CD22 mediates cytotoxicity of NSCLC and NHL B cells. Cells were treated with the anti-CD22 or anti-CD20 mAbs (HB22.7 or rituximab, respectively) (50 ug/ml) for 48 hr then assessed with an MTT assay. (B) Internalization of CD22 was assessed on NSCLC cell lines. The degree of internalization was determined by assessing the cytotoxicity of a carrier protein attached to an anti-mouse mAb (ZAP) compared to a non-cytotoxic control (SAP). HB22.7-ZAP and HB22.7-SAP were assessed in Ramos B-cells (top) and two NSCLC cell lines, A549 and H727 (bottom). […] PBMCs (10:1 PBMC:A549 ratio) were incubated +/− complement (1:10 dilution), or +/− huHB22.7 (50 μg/cc). A549-specific cytotoxicity was assessed with a DELFIA EuTDA cytotoxicity assay and reported as % of control.
(§2) Ramos, A549, or H1650 cells (2-2.5×10^4 per sample) were plated in triplicate in 96 well round bottom plates in a volume of 100 μL per well. Cells were treated for 1 hour with HB22.7, or rituximab to final concentrations of 25 μg/mL. Control cells received media only. […] Viability was assessed by trypan blue exclusion; experiments were done in triplicate and results were expressed as % of control (untreated cells) with the error bars representing the standard deviation.

[1] = tested on: NSCLC lines (H1650, Calu-1, A549); experiment: In vitro cytotoxicity assay, NSCLC lines; format: cell-based, human; conditions: after 48 hours
Procedure: as §1, §2

Substance: rituximab: anti-CD20 control mAb
- cytotoxic effects (Ramos NHL cells): cytotoxic effects
- cytotoxic response [1]: no cytotoxic response
